Paper PMC6050537, “Inhibition of low-density lipoprotein receptor degradation with a cyclic peptide that disrupts the homodimerization of IDOL E3 ubiquitin ligase” (Chemical Science, 2018)

What was measured:
Full length IDOL (1–445) [1] = target: Full length IDOL (1–445) (UniProt Q8WY64); experiment: MST; increasing concentrations of unlabelled IDOL titrated into a 45 nM solution of dye-labelled IDOL; homodimer to monomers
Full length IDOL (1–445) [2] = target: Full length IDOL (1–445) (UniProt Q8WY64); experiment: MST; as a6 but in the presence of RINGpep2 (100 μM); apparent; homodimer to monomers

Substance: Full length IDOL (1–445) (from UniProt Q8WY64 1-445) (enzyme)
- Kd (Full length IDOL (1–445) [1]): 2.9 µM
- apparent KD in the presence of RINGPep2 (100 μM) (Full length IDOL (1–445) [2]): 11.1 µM
